The values that follow are results of earlier work, collected in patent US7208138B2, “Contrast enhancement agent for magnetic resonance imaging” (Duke University, priority 2001, dated 2007).

One data set concerns the target T1, fXIIIa (Homo sapiens, UniProt P00488).
T1 sequence (P00488 39-732 limits assumed): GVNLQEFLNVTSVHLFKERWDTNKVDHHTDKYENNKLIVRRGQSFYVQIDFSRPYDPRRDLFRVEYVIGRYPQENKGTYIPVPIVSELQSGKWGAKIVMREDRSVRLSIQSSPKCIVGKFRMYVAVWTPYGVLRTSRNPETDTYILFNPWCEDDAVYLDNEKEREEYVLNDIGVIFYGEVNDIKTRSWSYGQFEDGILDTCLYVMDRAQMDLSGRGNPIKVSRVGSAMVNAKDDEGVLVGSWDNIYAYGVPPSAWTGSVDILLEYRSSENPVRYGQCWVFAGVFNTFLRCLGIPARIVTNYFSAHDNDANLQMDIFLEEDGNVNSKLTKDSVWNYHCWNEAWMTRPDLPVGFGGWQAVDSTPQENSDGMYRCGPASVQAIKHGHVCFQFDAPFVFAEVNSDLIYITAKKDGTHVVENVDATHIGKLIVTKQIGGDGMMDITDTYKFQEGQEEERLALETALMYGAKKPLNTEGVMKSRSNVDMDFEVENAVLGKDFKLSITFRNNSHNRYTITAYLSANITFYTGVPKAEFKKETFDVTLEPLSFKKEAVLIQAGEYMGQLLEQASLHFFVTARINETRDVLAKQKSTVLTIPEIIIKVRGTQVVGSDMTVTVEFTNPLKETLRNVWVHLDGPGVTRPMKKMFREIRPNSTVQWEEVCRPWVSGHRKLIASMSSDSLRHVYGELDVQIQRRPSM

Another data set concerns the target T2, TG (Homo sapiens, UniProt P21980).
T2 sequence (P21980 1-687): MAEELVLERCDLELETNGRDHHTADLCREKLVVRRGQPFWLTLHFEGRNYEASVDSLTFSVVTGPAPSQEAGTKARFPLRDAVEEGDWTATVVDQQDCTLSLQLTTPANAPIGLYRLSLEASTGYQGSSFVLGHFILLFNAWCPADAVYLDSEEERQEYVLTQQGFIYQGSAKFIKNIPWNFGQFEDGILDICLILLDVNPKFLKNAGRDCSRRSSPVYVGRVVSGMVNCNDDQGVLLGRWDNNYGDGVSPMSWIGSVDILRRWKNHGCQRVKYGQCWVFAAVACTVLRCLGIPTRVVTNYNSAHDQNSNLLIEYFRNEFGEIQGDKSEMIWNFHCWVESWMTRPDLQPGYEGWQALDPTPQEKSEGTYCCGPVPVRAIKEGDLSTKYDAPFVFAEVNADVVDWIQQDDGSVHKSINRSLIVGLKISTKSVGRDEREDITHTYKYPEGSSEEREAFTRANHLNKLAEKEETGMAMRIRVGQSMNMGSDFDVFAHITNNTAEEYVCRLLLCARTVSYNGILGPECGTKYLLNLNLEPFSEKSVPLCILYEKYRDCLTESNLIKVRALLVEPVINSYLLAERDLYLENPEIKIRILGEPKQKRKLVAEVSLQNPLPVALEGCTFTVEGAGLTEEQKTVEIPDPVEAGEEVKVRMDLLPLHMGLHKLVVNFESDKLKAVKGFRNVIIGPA

The conditions of data set [1]: time to clearance of one half from the bloodstream.
For data set [2] the following is noted: fraction of the relaxivity of free gadolinium ion.

“SEQ ID NO: 2: peptide of amino acid sequence NQEQVSP, the TG and fXIIIa crosslinking motif (listed as Homo sapiens)”: the “fXIIIa crosslinking / recognition” value in the data set with fXIIIa was “recognized”. Moreover, in the data set with TG, the “TG crosslinking / recognition” value was “recognized”.
Turning to “SEQ ID NO: 3: peptide NGEQVSP, glycine at position 2; control peptide in crosslinking assays (listed as Homo sapiens)”, the “fXIIIa crosslinking / recognition” value with fXIIIa is reported as “inert”. The “TG crosslinking / recognition” value with TG is recorded as “inert”.
For the molecule `O=C([O-])CN(CCN(CC(=O)[O-])CC(=O)[O-])CCN(CC(=O)[O-])CC(=O)[O-].[Gd+3]` [Gd-DTPA], the “cleared from the bloodstream (½)” value in data set [1] is 20 min. Besides, the “relaxivity of the complex relative to free gadolinium ion” value in data set [2] is “about one-half”.
